Publication PMC6053351, “Structural and biochemical insights into human zinc finger protein AEBP2 reveals interactions with RBBP4”

Biological target: AEBP2 ZF1-3 (Homo sapiens, UniProt Q6ZN18 258-357)
Experiment: fluorescence polarization; FPA with dsDNA: 25 mM Tris pH 7.4, 150 mM salt (salt identity and rest truncated in material), 50 nM FAM-DNA, 200 ul; G3A4 buffer and temperature not given in material
Conditions: protein: recombinant, tags: His6
[1] = label: 5'-FAM on sense strand, blunt

Chain of AEBP2 ZF1-3 (Q6ZN18 258-357): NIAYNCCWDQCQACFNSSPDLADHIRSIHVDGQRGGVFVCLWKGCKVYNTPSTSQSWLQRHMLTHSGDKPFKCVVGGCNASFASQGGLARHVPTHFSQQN

Binder | binding result [1] | binding result (label: 5'-FAM, G4)
GC-rich (dsDNA) DNA 1: GCGGCCCGCGCCCGCCGCCCCGCCGCGGCCCGCGCGGCCCGCGC DNA 2: GCGCGGGCCGCGCGGGCCGCGGCGGGGCGGCGGGCGCGGGCCGC | no binding | –
AT-rich (dsDNA) DNA 1: ATAATTTATATTTATTATTTTATTATAATTTATATAATTTATAT DNA 2: ATATAAATTATATAAATTATAATAAAATAATAAATATAAATTAT | no binding | –
AAAAAAGGGAAAAGGGAAAAGGGAAAAGGGAAAAAAAAAA (structured_DNA) [G3A4] | – | no binding
T1 (dsDNA) DNA 1: GATCTTTAGTTAACTTCCTCTCTGTCTGCAGGCCACTCCAGATC DNA 2: GATCTGGAGTGGCCTGCAGACAGAGAGGAAGTTAACTAAAGATC | no binding | –
